# Source: paper PMC3215729, “Rv2607 from Mycobacterium tuberculosis Is a Pyridoxine 5′-Phosphate Oxidase with Unusual Substrate Specificity” (PLoS ONE, 2011)
# B1: Rv2607 from Mycobacterium tuberculosis H37Rv, amino-terminal 6x-histidine tag fusion protein (enzyme)
# chain: MDDDAQMVAIDKDQLARMRGEYGPEKDGCGDLDFDWLDDGWLTLLRRWLNDAQRAGVSEPNAMVLATVADGKPVTRSVLCKILDESGVAFFTSYTSAKGEQLAVTPYASATFPWYQLGRQAHVQGPVSKVSTEEIFTYWSMRPRGAQLGAWASQQSRPVGSRAQLDNQLAEVTRRFADQDQIPVPPGWGGYRIAPEIVEFWQGRENRMHNRIRVANGRLERLQP
# notes: also called PNPOx; pyridoxine 5'-phosphate oxidase; not shown: His6, N-terminal, kept
# Biological target: the molecule itself
# Experiment: native MS
protein,measurement,value
B1,stoichiometry N,2
